Results published in patent US12280118B2 (Kyowa Kirin Co., Ltd., priority 2017, dated 2025).

B1: F78C-V40(IAc)/L12C-11: Cys-PEGylated and glycosylated IL-2 variant; F78 to C-V40(IAc); L12 to C-disialo; C125S (protein, UniProt P60568 21-153, looked up, variant L12C F78C C125S)
Interleukin-2: APTSSSTKKTQCQLEHLLLDLQMILNGINNYKNPKLTRMLTFKFYMPKKATELKHLQCLEEELKPLEEVLNLAQSKNCHLRPRDLISNINVIVLELKGSETTFMCEYADETATIVEFLNRWITFSQSIISTLT
modifications: PEG on C78; disialo glycan on C12
notes: Cys-PEGylated and glycosylated IL-2 variant; F78 to C-V40(IAc); L12 to C-disialo; C125S
B2: T3C-V80(Mal)/E15C-11: Cys-PEGylated and glycosylated IL-2 variant; T3 to C-V80(Mal); E15 to C-disialo; C125S (protein, UniProt P60568 21-153, looked up, variant T3C E15C C125S)
Interleukin-2: APCSSSTKKTQLQLCHLLLDLQMILNGINNYKNPKLTRMLTFKFYMPKKATELKHLQCLEEELKPLEEVLNLAQSKNFHLRPRDLISNINVIVLELKGSETTFMCEYADETATIVEFLNRWITFSQSIISTLT
modifications: maleimide PEG on C3; disialo glycan on C15
notes: Cys-PEGylated and glycosylated IL-2 variant; T3 to C-V80(Mal); E15 to C-disialo; C125S
B3: T3C-Y50(IAc)/E15C-11: Cys-PEGylated and glycosylated IL-2 variant; T3 to C-Y50(IAc); E15 to C-disialo; C125S (protein, UniProt P60568 21-153, looked up, variant T3C E15C C125S)
Interleukin-2: APCSSSTKKTQLQLCHLLLDLQMILNGINNYKNPKLTRMLTFKFYMPKKATELKHLQCLEEELKPLEEVLNLAQSKNFHLRPRDLISNINVIVLELKGSETTFMCEYADETATIVEFLNRWITFSQSIISTLT
modifications: PEG on C3; disialo glycan on C15
notes: Cys-PEGylated and glycosylated IL-2 variant; T3 to C-Y50(IAc); E15 to C-disialo; C125S
B4: T3C-Li20(IAc)/L12C-11/V91C-11: Cys-PEGylated and glycosylated IL-2 variant; T3 to C-Li20(IAc); L12, V91 to C-disialo; C125S (protein, UniProt P60568 21-153, looked up, variant T3C L12C V91C C125S)
Interleukin-2: APCSSSTKKTQCQLEHLLLDLQMILNGINNYKNPKLTRMLTFKFYMPKKATELKHLQCLEEELKPLEEVLNLAQSKNFHLRPRDLISNINCIVLELKGSETTFMCEYADETATIVEFLNRWITFSQSIISTLT
modifications: PEG on C3; disialo glycans
notes: Cys-PEGylated and glycosylated IL-2 variant; T3 to C-Li20(IAc); L12, V91 to C-disialo; C125S
B5: A1C-11/T3C-11/S5C-11/L12C-11/V91C-11: glycosylated IL-2 variant; A1, T3, S5, L12, V91 to C-disialo; C125S (protein, UniProt P60568 21-153, looked up, variant A1C T3C S5C L12C V91C C125S)
Interleukin-2: CPCSCSTKKTQCQLEHLLLDLQMILNGINNYKNPKLTRMLTFKFYMPKKATELKHLQCLEEELKPLEEVLNLAQSKNFHLRPRDLISNINCIVLELKGSETTFMCEYADETATIVEFLNRWITFSQSIISTLT
modifications: disialo glycans on cysteines
notes: glycosylated IL-2 variant; A1, T3, S5, L12, V91 to C-disialo; C125S
B6: V91C-11/V115C-11: glycosylated IL-2 variant; V91, V115 to C-disialo; C125S (protein, UniProt P60568 21-153, looked up, variant V91C V115C C125S)
Interleukin-2: APTSSSTKKTQLQLEHLLLDLQMILNGINNYKNPKLTRMLTFKFYMPKKATELKHLQCLEEELKPLEEVLNLAQSKNFHLRPRDLISNINCIVLELKGSETTFMCEYADETATICEFLNRWITFSQSIISTLT
modifications: disialo glycans on cysteines
notes: glycosylated IL-2 variant; V91, V115 to C-disialo; C125S

Legend:
Assay type in all cases: cell-based
human NK cells = test: NK cell proliferation activity; conditions: for cell proliferation activity on NK cells: compared with IL-2 (P) and 8His-IL-2 as controls
Method: A separation of NK cells from human PBMC was performed by a method below. Frozen human PBMC was thawed according to the method described in Example 13, and CD56^+ NK cells were separated using NK Cell Isolation Kit human (manufactured by Miltenyi Biotech). The separated cells were washed three times with a culture medium (1500 rpm, room temperature, 5 minutes) and then subjected to a proliferation assay below.
FIGS. 2A to 2H show results obtained using a proliferation medium, and FIGS. 2I to 2K show results obtained using the X-vivo 10 SFM.

human Tregs = test: Treg proliferation activity; conditions: for Treg proliferation activity: with respect to IL-2 (P) or 8His-IL-2 (P) as control
Method: After human frozen peripheral blood mononuclear cells (PBMCs) (manufactured by AllCells) were melted in a warm bath at 37° C., the cells were suspended in 10 mL of a culture medium [X-vivo15 SFM (manufactured by Lonza) 1000 mL, heat-inactivated human AB serum (manufactured by SIGMA) 150 mL], and a T-75 flask for adhesion (manufactured by greiner bio-one) was seeded the cells, and allowed to stand for 24 hours to culture the cells (37° C., under conditions of 95 vol % air/5 vol % CO2). A total amount of cells was collected, and CD4^+ T cells were enriched using EasySep Human CD4^+ Tcells Enrichment kit (manufactured by […] Technologies).
After staining (on ice, 30 minutes) with Anti-human CD4-Alexa 488 (manufactured by Biolegend), anti-human CD25-PE (manufactured by BD Pharmingen), and anti-human CD127-BV421 (manufactured by Biolegend), a CD4^+ CD25^+ CD127^low fraction (Treg) was separated using a cell sorter SH800 (manufactured by SONY Biotechnology).
The separated Treg and CD3/CD28 Dynabeads (manufactured by Thermo Fischer […]) washed three times with the culture medium were mixed with each other, and suspended in a culture medium at 3.4×10^4 cells/mL, respectively, and a 96-well U bottom plate (manufactured by Corning) was seeded with at 150 μL/well.
After culturing for 5 to 7 days, 50 μL of a total volume of each well was transferred to a 96-well white plate. A Celltiter-Glo solution was added at 50 μL/well, and the mixture was allowed to stand at room temperature for 10 minutes, and then a luminescence value was measured using a luminometer (manufactured by TURNER BIOSYSTEMS).

human Tresp = test: Inhibitory activity of IL-2-stimulated Tregs on Tresp proliferation; conditions: Tregs cultured 7 days with IL-2 (final concentration 65 nM); compared with unstimulated Treg
Method: All cells were separated from each other by the same lot of frozen human PBMC.
Seven days before the assay, Tregs were separated from the frozen human PBMCs as described in Example 13.
The cell preparation on the day of test was performed as follows. Tregs were separated from the frozen human PBMC by the method described in Example 13 and used as unstimulated Tregs. After CD3^+CD25^− T cells were separated from the frozen human PBMC, by using EasySep Human T Cell Enrichment Kit (manufactured by [sequence] Technologies) and EasySep Human Pan-CD25 Positive Selection and Depletion Kit (manufactured by [sequence] Technologies), the cells were labeled by reacting Celltrace violet (manufactured by Thermo Fischer [sequence]) diluted to 40 μmol/L with a 10% FBS-containing RPMI1640 medium, at room temperature for 5 minutes.
The obtained cells were used as responder T cells (Tresp). HLA-DR+ cells were separated from frozen human PBMCs using Anti-HLA-DR MicroBeads, human (manufactured by Miltenyi Biotec). The obtained cells were used as Antigen presenting cell (APC).
After the obtained cells were suspended in X-vivo 15 SFM to which an anti-CD3 antibody OKT3 (manufactured by Biolegend) was added to obtain a final concentration of 0.5 μg/mL, a 96-well V-bottom plate (manufactured by Sumitomo Bakelite) was seeded with Tresp at 2×10^4 cells/well (50 μL), APC at 1×10^5 cells/well (50 μL), and Tregs at 1.6×10^2 to 5×10^3 cells/well (50 μL) (Tresp:Treg=4:1 to 128:1), and the cells were cultured at 37° C. under 5% CO2 for 4 days.
Thereafter, the cells were stained with anti-human CD4-APC (manufactured by BD Pharmingen) and anti-human CD8-PE (manufactured by BD Pharmingen) (at room temperature for 15 minutes), and then various fluorescent intensities were measured by flow cytometer FACS Canto II (manufactured by BD Biosciences).
The obtained data was exported as FCS file, and then analyzed using data analysis software FLowJo (TreeStar, version 7.6.5) for a division index value, which is an average number of cell divisions in CD4^+ Tresp or CD8^+ Tresp.

Row | Molecule | cell proliferation activity on NK cells (human NK cells) | Treg proliferation activity (human Tregs) | proliferation of Tresp in the presence of IL-2-stimulated Tregs (human Tresp) | IL-2-dependent cell proliferation rate (human Tregs; Treg, IL-2 concentration of 65 nmol/L) | IL-2-dependent cell proliferation rate (human NK cells; NK cells, X-vivo 10 SFM, IL-2 concentration of 65 nmol/L)
1 | E15C-11: glycosylated IL-2 variant; E15 to C-disialo; C125S | greatly reduced | maintained | – | – | –
2 | H16C-2: glycosylated IL-2 variant; H16 to C-lactose | greatly reduced | maintained | inhibited | – | –
3 | L19C-9: glycosylated IL-2 variant; L19 to C-asialo | greatly reduced | maintained | inhibited | – | –
4 | N88C-2: glycosylated IL-2 variant; N88 to C-lactose | greatly reduced | maintained | inhibited | – | –
5 | B1 | greatly reduced | lowered | – | ≥ 80% | –
6 | B2 | greatly reduced | lowered | – | – | –
7 | B3 | greatly reduced | maintained | – | – | –
8 | B4 | greatly reduced | lowered | – | – | –
9 | B5 | greatly reduced | lowered | – | – | ≤ 20%
10 | B6 | greatly reduced | maintained | – | – | –
